Experimental findings from publication PMC12802955 are described below.

The assay addresses H234A mutant of SARS-CoV-2 nsp15 with an N-terminal Strep-Tag II (SARS-CoV-2). The assay is described as follows: cryo-EM structure.

Consider “H234A mutant of SARS-CoV-2 nsp15 with an N-terminal Strep-Tag II (enzyme)”, for which the stoichiometry N (commonly the number of molecules, sites or subunits per partner or assembly) amounted to 6.
